Assay results reported in the RNAGym collection of RNA variant scans (doi:10.7554/elife.80360).

B1: HDV Ribozyme (parent)
chain: GGCCGGCAUGGUCCCAGCCUCCUCGCUGGCGCCGGCUGGGCAACAUUCCGAGGGGACCGUCCCCUCGGUAAUGGCGAAUGGGACCCA

Variants of: B1
Test: self-cleavage, relative activity (ratio to wild type); higher = more cleavage; co-transcriptional

Variant | self-cleavage
GGCCGGCCUGGUCCCAGCCUCCUCGCUGGCGCCGGCUGGGCAACAUUCCGAGGGGACCGUCCCCUCGGUAAUGGCGGAUGGGACCCA [A8C A77G] | 0.798
GGCCGGCCUGGUCACAGCCUCCUCGCUGGCGCCGGCUGGGCAACAUUCCGAGGGGACCGUCCCCUCGGUAAUGGCGAAUGGGACCCA [A8C C14A] | 0.375
GGCCGGCCUGGUCGCAGCCUCCUCGCUGGCGCCGGCUGGGCAACAUUCCGAGGGGACCGUCCCCUCGGUAAUGGCGAAUGGGACCCA [A8C C14G] | 0.237
GGCCGGCCUGGUCCCAGCCUCCUCGCUGGCGCCGGCUGGGCAACAUUCCGAGGGGACCGUCCCCUCGGUAUUGGCGAAUGGGACCCA [A8C A71U] | 0.427
GGCCGGCCUGGUCCCAGCCUCCUCGCUGGCGCCGGCUGGGCAACAUUCCGAGGGGACCGUCCCCUCGGUACUGGCGAAUGGGACCCA [A8C A71C] | 0.308
GGCCGGCCUGGUCCCAGCCUCCUCGCUGGCGCCGGCUGGGCAACAUUCCGAGGGGACCGUCCCCUCGGUAAUGGCGAAUGGGACCCA [A8C] | 0.859
GGCCGGCCUGGUCCCAGCCUCCUCGCUGGCGCCGGCUGGGCGACAUUCCGAGGGGACCGUCCCCUCGGUAAUGGCGAAUGGGACCCA [A8C A42G] | 0.462
GGCCGGCCUGGUCCCAGCCUCCUCGCUGGCGCCGGCUGGGCAACAUUCCGAGGGGACCGUCCCCUCGGUAAUGGCGAGUGGGACCCA [A8C A78G] | 0.35
GGCCGGCCUGGUCCCAGCCUCCUCGCUGGCGCCGGCUGGGCAACAUUCCGAGGGGACCGUCCCCUCGGUAAUGGCGAUUGGGACCCA [A8C A78U] | 0.119
GGCCGGCCUGGUCCCAGCCUCCUCGCUGGCGCCGGCUGGGCAACAUUCCGGGGGGACCGUCCCCUCGGUAAUGGCGAAUGGGACCCA [A8C A51G] | 0.997
GGCCGGCCUGGUCCCAGCCUCCUCGCUGGCGCCGGCUGGGCAACAUUCCGCGGGGACCGUCCCCUCGGUAAUGGCGAAUGGGACCCA [A8C A51C] | 0.802
GGCCGGUAUGGUCCCAGCCUCCUCGCUGGCGCCGGCUGGGCAACAUUCCGAGGGGACCGUCCCCGCGGUAAUGGCGAAUGGGACCCA [C7U U65G] | 0.856
GGCCGGCCUGGUCCCAGCCUCCUCGCUGGCGCCGGCUGGGCAACCUUCCGAGGGGACCGUCCCCUCGGUAAUGGCGAAUGGGACCCA [A8C A45C] | 0.156
GGCCGGCCUGGUCCCAGCCUCCUCGCUGGCGCCGGCUGGGCAACUUUCCGAGGGGACCGUCCCCUCGGUAAUGGCGAAUGGGACCCA [A8C A45U] | 0.429
GGCCGGUAUGGUCCCAGCCUCCUCGCUGGCGCCGGCCGGGCAACAUUCCGAGGGGACCGUCCCCUCGGUAAUGGCGAAUGGGACCCA [C7U U37C] | 1.14
GGCCGGCCUGGUUCCAGCCUCCUCGCUGGCGCCGGCUGGGCAACAUUCCGAGGGGACCGUCCCCUCGGUAAUGGCGAAUGGGACCCA [A8C C13U] | 0.356

Variant | self-cleavage
GGCCGGCCUGGUACCAGCCUCCUCGCUGGCGCCGGCUGGGCAACAUUCCGAGGGGACCGUCCCCUCGGUAAUGGCGAAUGGGACCCA [A8C C13A] | 0.266
GGCCGGCCUGGUCCCAGCCUCCUCGCUGGCGCCGGCUGGGCAGCAUUCCGAGGGGACCGUCCCCUCGGUAAUGGCGAAUGGGACCCA [A8C A43G] | 0.151
GGCCGGCCUGGUCCCAGCCUCCUCGCUGGCGCCGGCUGGGCACCAUUCCGAGGGGACCGUCCCCUCGGUAAUGGCGAAUGGGACCCA [A8C A43C] | 0.185
GGCCGGUAUGGUCCCAGCCUCCUCGCUGGCGCCGGCUGGGCAACACUCCGAGGGGACCGUCCCCUCGGUAAUGGCGAAUGGGACCCA [C7U U46C] | 0.447
GGCCGGUAUGGUCCCAGCCUCCUCGCUGGCGCCGGCUGGGCAACAAUCCGAGGGGACCGUCCCCUCGGUAAUGGCGAAUGGGACCCA [C7U U46A] | 0.623
GGCCGGUAUGGUCCCAGCCUCCUCGCUGGCGCCGGCUGGGCAACAUUCCGAGGGGACCGUCCCCUCGGGAAUGGCGAAUGGGACCCA [C7U U69G] | 0.855
GGCCGGUAUGGUCCCAGCCUCCUCGCUGGCGCCGGCUGGGCAACAUUCCGAGGGGACCGUCCCCUCGGUAAGGGCGAAUGGGACCCA [C7U U72G] | 0.332
GGCCGGUAUGGUCCCAGCCUCCUCGCUGGCGCCGGCUGGGCAACAUUCCGAGGGGACCGUCCCCUCGGUAAAGGCGAAUGGGACCCA [C7U U72A] | 0.604
GGCCGGUAUGGUCCCAGCCUCCUCGCUGGCGCCGGCUGGGCAACAUUCCGAGGGGACCGUCCCCUCGGUAACGGCGAAUGGGACCCA [C7U U72C] | 0.268
GGCCGGUAUGGUCCCAGCCUCCUCGCUGGCGCCGGCUGGGCAACAUUCCGAGGGGACCGUCCCCUCGGUAAUGGCGAACGGGACCCA [C7U U79C] | 0.126
GGCCGGUAUGGUCCCAGCCUCCUCGCUGGCGCCGGCUGGGCAACAUUCCGAGGGGACCGUCCCCUCGGUAAUGGCGAAGGGGACCCA [C7U U79G] | 0.434
GGCCGGUAUGGUCCCAGCCUCCUCGCUGGCGCCGGCUGGGCAACAUGCCGAGGGGACCGUCCCCUCGGUAAUGGCGAAUGGGACCCA [C7U U47G] | 0.9
GGCCGGUAUGGUCCCAGCCUCCUCGCUGGCGCCGGCUGGGCAACAUACCGAGGGGACCGUCCCCUCGGUAAUGGCGAAUGGGACCCA [C7U U47A] | 0.554
GGCCGGCCUGGUCCCAGCCUCCUCGCUGGCGCCGGCUGGGCAACAUUCCGAGGGGACCGUCCCCUCGGUCAUGGCGAAUGGGACCCA [A8C A70C] | 0.612
GGCCGGCCUGGUCCCUGCCUCCUCGCUGGCGCCGGCUGGGCAACAUUCCGAGGGGACCGUCCCCUCGGUAAUGGCGAAUGGGACCCA [A8C A16U] | 1.16
GGCCGGCCUGGUCCCAGCCUCCUCGCUGGCGCCGGCUGGGCAACAUUCCGAGGGGGCCGUCCCCUCGGUAAUGGCGAAUGGGACCCA [A8C A56G] | 0.939
